Laboratory results from patent US20240317868A1 (Boehringer Ingelheim, published 2024).
Residue numbers refer to the chain shown, from its start. Names and notes keep the numbering of the source. Read-outs that look alike come from different tables or passages of the source. Blank lines part the entries; values can stand above or below the binder they belong to.

What was measured:
[1] = molecular target: T1, human IL1RAP (human, UniProt Q9NPH3 21-367, limits assumed, biotinylated in the ELISA screens (site not stated)); experiment: hKD, method not stated
T1 construct: also called huIL1RAP; IL1RAP antigen
T1 sequence (looked up): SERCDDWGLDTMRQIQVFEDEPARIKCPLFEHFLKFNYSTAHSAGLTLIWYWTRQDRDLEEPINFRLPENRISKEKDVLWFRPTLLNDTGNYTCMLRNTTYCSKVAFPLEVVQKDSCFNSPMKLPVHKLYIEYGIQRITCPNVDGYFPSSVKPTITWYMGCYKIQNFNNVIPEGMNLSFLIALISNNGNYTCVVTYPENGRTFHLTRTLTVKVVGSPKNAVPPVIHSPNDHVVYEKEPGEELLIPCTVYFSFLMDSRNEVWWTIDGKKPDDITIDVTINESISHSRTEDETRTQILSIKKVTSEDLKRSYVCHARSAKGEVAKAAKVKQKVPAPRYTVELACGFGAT

[2] = molecular target: T1, human IL1RAP; experiment: ELISA: Fab constant (4 nM) captured on Fd coat (67 nM), Biot-hu IL1RAP titrated from 6.8 nM (the concentration axis is the antigen), SA-HRP 1:4000
[3] = molecular target: T1, human IL1RAP; experiment: as above; remark: listed apart in the source
[4] = molecular target: T1, human IL1RAP; experiment: ELISA of point mutant IgG (light chain mutant with the parental chimeric heavy chain, CHO-E expression), one bar each, concentration not given
Source text: For light chain 13 variants (T25A, E27Q, N28S, N30S, Y50A, K52S, T53Y, A55Q, E56S, H90Q, H91S, G93S and S95P) and 19 heavy chain variants (Y27G, I28T, L30S, T31S, W33Y, M34I, N35S, Q50R, F521, A541, S55L, D56G, S57I, T58A, N61A, E62Q, M63K, K65Q and D66G) were generated separately in the vector pTT5 (See FIG. 3A/B). The light chain mutants were paired with the parental chimeric heavy chain and heavy chain mutants were paired with parental chimeric light chain for expression analysis in CHO-E cells for 7 days. The resulting variants were evaluated for binding in ELISA experiments and compared to the parental chimeric IgG which has mouse variable region but human constant regions. For light chain variants, six point mutants VK-T25A, E27Q, N28S, N30S, K52S and T53Y depicted binding similar to chimeric IgG (+10% control; FIG. 3A) while for heavy chain […] point mutants VH-I28T, L30S, M34I, N35S, D56G, T58A, N61A, E62Q, M63K, K65Q and D66G depicted similar binding as chimeric IgG (+10% control; FIG. 3B).

[5] = molecular target: T1, human IL1RAP; experiment: ELISA, antigen titration: Fab (1:5) captured on anti-Fd coat 700 ng/ml (4.7 nM), IL1RAP antigen titrated (the concentration axis is the antigen), SA-HRP 1:4000

Kd [1]: 0.2 nM
B1: CAN04 (antibody, V domains shown)
VH: QVQLQQSGPELLKPGASVKISCKASGYAFSSSWMNWVKQRPGKGLEWIGRIYPGDGNTHYSGKFKGKATLTADKSSSIAYMQLSSLTSEDSAVYFCGEGYLDPMDYWGQGTSVTVSS
VL: DIQMTQTTSSLSASLGDRVTISCSASQGINNYLNWYQQKPDGTVKLLIHYTSGLHAGVPSRFSGSGSGTDYSLTISNLEPEDVATYYCQQYSILPWTFGGGTKLEIKR

EC50 (read off the curve) [2]: ~0.4 nM | EC50 (read off the curve) [3]: ~0.4 nM
B2: IL1RAP G011 chimeric Fab (Fab, V domains shown)
VH: QVHLQQSGPELVRPGTSVKISCEASGYIFLTYWMNWVKQRPGQGLEWIGQIFPASDSTYYNEMFKDKARFTVDKSSSTAYMQFSSLTSEDTAVYFCARSGPYSYYAGGYALDYWGQGTSVTVSS
VL: DIQMTQSPASLSASVGETVTITCRTSENINSYLAWYQQKQGKSPQLLVHYAKTLAEGVPSRFSGSGSGTQFSLKINSLKPEDFGSYYCQHHYGTSLTFGAGTKLELK
notes: Mouse VK and VH fused to human Ck and CH1; expressed in E. coli (periplasmic extract or supernatant); also called mouse Fab; chimeric parent anti-IL1RAP GO11 Fab

binding result [4]: binds
B3: VK-H91S (antibody, V domains shown)
VH: B2 VH
VL: DIQMTQSPASLSASVGETVTITCRTSENINSYLAWYQQKQGKSPQLLVHYAKTLAEGVPSRFSGSGSGTQFSLKINSLKPEDFGSYYCQHSYGTSLTFGAGTKLELKR
notes: germlining point mutant, paired with the parental chimeric heavy chain; also called GO11 chimeric IgG, light chain point mutant H91S; copies: 2 + 2

binding result [4]: binds
B4: VK-S95P (antibody, V domains shown)
VH: B2 VH
VL: B3 VL with S91H, S95P
notes: germlining point mutant, paired with the parental chimeric heavy chain; also called GO11 chimeric IgG, light chain point mutant S95P; copies: 2 + 2

binding result [5]: binds
B5: engrafted Fab (GO11 CDRs on IGKV1-39*01 and IGHV1-69*02) (Fab, V domains shown)
VH: QVQLVQSGAEVKKPGSSVKVSCKASGYIFLTYWMNWVRQAPGQGLEWMGQIFPASDSTYYNEMFKDRVTITADKSTSTAYMELSSLRSEDTAVYYCARSGPYSYYAGGYALDYWGQGTLVTVSS
VL: DIQMTQSPSSLSASVGDRVTITCRTSENINSYLAWYQQKPGKAPKLLIYYAKTLAEGVPSRFSGSGSGTDFTLTISSLQPEDFATYYCQHHYGTSLTFGQGTKLEIK
notes: Fab from E. coli periplasmic extract; constant parts not specified; also called HUMANIZED/GRAFT 005-G011 #A1
